Earlier results on two substances are cited in paper PMC2910557.

Like-named read-outs stand apart in the source and are kept apart here.

For series [1], the target named is pHtrII (Natronomonas pharaonis) (UniProt P42259).
The target is the same in series [2]. The source holds these as a separate data set.

Chain of UniProt P42259 (P42259 whole entry): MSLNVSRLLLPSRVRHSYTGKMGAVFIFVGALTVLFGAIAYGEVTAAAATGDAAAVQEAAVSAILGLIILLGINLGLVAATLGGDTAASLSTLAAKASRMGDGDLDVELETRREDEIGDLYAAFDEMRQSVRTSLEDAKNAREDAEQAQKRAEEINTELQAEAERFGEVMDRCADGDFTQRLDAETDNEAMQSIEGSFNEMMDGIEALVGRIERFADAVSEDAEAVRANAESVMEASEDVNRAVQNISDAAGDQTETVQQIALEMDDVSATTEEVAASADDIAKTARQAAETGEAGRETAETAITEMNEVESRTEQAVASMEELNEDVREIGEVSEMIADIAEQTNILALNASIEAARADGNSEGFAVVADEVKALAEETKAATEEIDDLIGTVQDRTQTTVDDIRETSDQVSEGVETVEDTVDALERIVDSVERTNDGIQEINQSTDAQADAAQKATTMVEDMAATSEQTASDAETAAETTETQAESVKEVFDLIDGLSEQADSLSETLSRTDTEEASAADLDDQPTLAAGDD

With “ppR M intermediate (ppRM) (from UniProt P42196)”, the Kd – broadly, a measure of binding affinity in units of concentration – in series [1] is 5 µM.

Consider “ppR (sensory rhodopsin II) (from UniProt P42196)”, for which the Kd in series [2] was 160 nM.
